From publication PMC12677907

Biological target: BoABA2, purified protein (GST pull-down and enzyme assay) (cabbage (Brassica oleracea var. capitata))

BoCML37, purified protein (GST pull-down and enzyme assay) (natural protein)
BoABA2 catalytic activity in converting xanthoxin to abscisic aldehyde in vitro, co-incubated with BoCML37 in the presence of Ca2+, relative to BoABA2 alone: 3.88 fold
